Source: publication PMC8789047 (Nucleic Acids Research, 2021)

B1: GST-ZNHIT2ΔC (domain or fragment)
chain: MEPAGPCGFCPAGEVQPARYTCPRCNAPYCSLRCYRTHGTCAENFYRDQVLGELRGCSAPPSRLASALRRLRQQRETEDEPGEAGLSSGPAPGGLSGLWERLAPGEKAAFERLLSRGEAGRLLPPWRPWWWNRGAGPQLLEELDNAPGSDAAELELAPARTPPDSVKDASAAEPAAAERVLGDVPGACTPVVPTRIPAIVSLSRGPVSPLVRFQLPNVLFAYAHTLALYHGGDDALLSDFCATLLGVSGALGAQQVFASAEEALQAAAHVLEAGEHPPGPLGTRGAMHEVARILLGEGPTNQKGYTLAALGDLAQTLGRARKQAVAREERDHLYRARKKCQFLLAWTNENEAALTPLALDCARAHQAHAVVAEEV
B2: ZNHIT2ΔC (domain or fragment)
chain: B1 chain
B3: GST-ZNHIT2-C (domain or fragment)
chain: GPVSPLVRFQLPNVLFAYAHTLALYHGGDDALLSDFCATLLGVSGALGAQQVFASAEEALQAAAHVLEAGEHPPGPLGTRGAMHEVARILLGEGPTNQKGYTLAALGDLAQTLGRARKQAVAREERDHLYRARKKCQFLLAWTNENEAALTPLALDCARAHQAHAVVAEEV
B4: Strep II-ECD (natural protein)
chain: MEETMKLATMEDTVEYCLFLIPDESRDSDKHKEILQKYIERIITRFAPMLVPYIWQNQPFNLKYKPGKGGVPAHMFGVTKFGDNIEDEWFIVYVIKQITKEFPELVARIEDNDGEFLLIEAADFLPKWLDPENSTNRVFFCHGELCIIPAPRKSGAESWLPTTPPTIPQALNIITAHSEKILASESIRAAVNRRIRGYPEKIQASLHRAHCFLPAGIVAVLKQRPRLVAAAVQAFYLRDPIDLRACRVFKTFLPETRIMTSVTFTKCLYAQLVQQRFVPDRRSGYRLPPPSDPQYRAHELGMKLAHGFEILCSKCSPHFSDCKKSLVTASPLWASFLESLKKNDYFKGLIEGSAQYRERLEMAENYFQLSVDWPESSLAMSPGEEILTLLQTIPFDIEDLKKEAANLPPEDDDQWLDLSPDQLDQLLQEAVGKKESESVSKEEKEQNYDLTEVSESMKAFISKVSTHKGAELPREPSEAPITFDADSFLNYFDKILGPRPNESDSDDLDDEDFECLDSDDDLDFETHEPGEEASLKGTLDNLKSYMAQMDQELAHTCISKSFTTRNQVEPVSQTTDNNSDEEDSGTGESVMAPVDVDLNLVSNILESYSSQAGLAGPASNLLQSMGVQLPDNTDHRPTSKPTKN
B5: AAR2-His (natural protein)
chain: MAAVQMDPELAKRLFFEGATVVILNMPKGTEFGIDYNSWEVGPKFRGVKMIPPGIHFLHYSSVDKANPKEVGPRMGFFLSLHQRGLTVLRWSTLREEVDLSPAPESEVEAMRANLQELDQFLGPYPYATLKKWISLTNFISEATVEKLQPENRQICAFSDVLPVLSMKHTKDRVGQNLPRCGIECKSYQEGLARLPEMKPRAGTEIRFSELPTQMFPEGATPAEITKHSMDLSYALETVLNKQFPSSPQDVLGELQFAFVCFLLGNVYEAFEHWKRLLNLLCRSEAAMMKHHTLYINLISILYHQLGEIPADFFVDIVSQDNFLTSTLQVFFSSACSIAVDATLRKKAEKFQAHLTKKFRWDFAAEPEDCAPVVVELPEGIEMG
B6: 6xHis-AAR2-Strep II (natural protein)
chain: B5 chain

Assays:
RUVBL1 [1] = target: T1, RUVBL1 (human, UniProt Q9Y265 1-456); test: pull-down
[2] = target: His-RUVBL1–RUVBL2 complex (human, UniProt Q9Y265;Q9Y230); test: pull-down
RUVBL1–RUVBL2 complex = RUVBL1–RUVBL2 complex (human, UniProt Q9Y265;Q9Y230); test: pull-down
RUVBL2 [3] = target: T2, RUVBL2 (human, UniProt Q9Y230 1-463); test: pull-down
Strep II-ECD = target: B4; test: pull-down
PRPF8-Flag = PRPF8-Flag (human, UniProt Q6P2Q9 1-2335); test: pull-down
6xHis-AAR2-Strep II = target: B6; test: pull-down
AAR2-His = target: B5; test: pull-down
RUVBL1 [4] = target: T1, RUVBL1; test: cross-linking
RUVBL2 [5] = target: T2, RUVBL2; test: cross-linking

Measured: binding result

B1
binds: RUVBL1 [1] | [2] | RUVBL1–RUVBL2 complex | RUVBL2 [3] | Strep II-ECD

B2
binds: PRPF8-Flag | 6xHis-AAR2-Strep II | Strep II-ECD | AAR2-His | RUVBL1 [4] | RUVBL2 [5]

B3
binds: RUVBL1 [1] | RUVBL1–RUVBL2 complex | RUVBL2 [3]

B4
binds: PRPF8-Flag | RUVBL1–RUVBL2 complex

B5
binds: Strep II-ECD

B6
binds: RUVBL1–RUVBL2 complex
